Data from paper PMC10245814 (bioRxiv, 2023).

Target: T1, BabA^AD (residues 25 to 460 of mature BabA) (Helicobacter pylori 17875/Leb (CCUG …))
T1 chain: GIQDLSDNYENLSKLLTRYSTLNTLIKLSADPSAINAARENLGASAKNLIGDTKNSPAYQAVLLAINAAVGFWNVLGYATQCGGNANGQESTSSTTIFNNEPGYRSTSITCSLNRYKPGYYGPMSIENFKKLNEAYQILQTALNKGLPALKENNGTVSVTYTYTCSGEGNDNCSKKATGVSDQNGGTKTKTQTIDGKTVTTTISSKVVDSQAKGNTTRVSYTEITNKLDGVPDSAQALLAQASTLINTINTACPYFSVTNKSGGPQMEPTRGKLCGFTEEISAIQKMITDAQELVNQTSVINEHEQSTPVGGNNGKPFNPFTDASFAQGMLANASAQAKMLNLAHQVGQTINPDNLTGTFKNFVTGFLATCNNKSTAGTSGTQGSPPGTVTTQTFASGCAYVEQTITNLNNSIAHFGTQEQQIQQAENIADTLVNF
Test: crystal structure

B1: nanobody Nb-ER19 (VHH)
VHH: QVQLQESGGGLVQPGGSLRLSCAASGSIFSGNVMGWYRQAPGKLREWVAAITPQGVPNYADSVKGRFTISRDNAKNMLYLQMSSLKPEDTALYYCNRLPNYRSWGQGTQVTVSS
B1: binds.
